Results published in US20250388643A1, “GLUCAGON-LIKE PEPTIDE-2 COMPOSITIONS AND METHODS OF MAKING AND USING SAME” (Amunix Pharmaceuticals, Inc., priority 2011, published 2025).
Where two headings read alike, the source gives them in different places.

What was measured:
[1] = rat, in vivo
Description: The fusion protein GLP2-2G-XTEN_AE864 was evaluated for its pharmacokinetic properties in Wistar rats following SC administration of two different dosage levels. Prior to the experiment, catheters were surgically implanted into the jugular vein of female Wistar rats. The catheterized animals were randomized into two groups containing three rats each. The fusion protein GLP2-2G-XTEN (lot AP510) was administered to each rat via SC injection as follows: 1) Low Dose 2 mg/kg (25 nmol/kg); or 2) High Dose 16 mg/kg (200 nmol/kg). Blood samples (˜0.2 mL) were collected through the jugular vein catheter from each rat into prechilled heparinized tubes at pre-dose, 0.08, 4, 8, 24, 48, 72, 96, 120 and 168 hours after test compound administration (10 time points). Blood was processed into plasma by centrifugation, split into two aliquots for analysis by ELISA. The samples were analyzed for fusion protein concentration, performed by both anti-XTEN/anti-XTEN sandwich ELISA (AS1602) and anti-GLP2/anti-XTEN sandwich ELISA (AS1705) and the results were analyzed using WinNonLin to obtain the PK parameters. Terminal half life was fit from 48 to 168 hours.

[2] = Analytical size exclusion HPLC of GLP2-2G-XTEN (apparent molecular weight); type: physicochemical
Description: Gel filtration analysis was performed using a Phenomenex BioSep-SEC-s4000 (7.8 mm×600 mm) column. 20 μg or AP690 GLP2-2G-XTEN fusion protein were analyzed at a flowrate of 0.5 ml/min with 50 mM Phosphate pH 6.5, 300 mM NaCl mobile phase. Elution was monitored using OD215 nm. Column calibration was performed using a size exclusion check standard from Phenomenex, with the following markers: thyroglobulin (670 kDa), IgG (156 kDa), BSA (66 kDa) and ovalbumin ([…]). The result (FIG. 11B) indicated an apparent molecular weight of 1002 kDa for the fusion protein of 83.1 kDa actual weight, for an apparent molecular weight factor of […].

[3] = mouse, in vivo
Description: The fusion protein GLP2-2G-XTEN_AE864 was evaluated for its pharmacokinetic properties in C57Bl/6 mice following subcutaneous (SC) administration. Female C57Bl/6 mice were injected SC with 2 mg/kg (25 nmol/kg) of the GLP2-2G-XTEN (lot AP498A) at 0.25 mg/mL (8 mL/kg). Three mice were sacrificed at each of the following time points: Predose, 0.08, 4, 8, 24, 48, 72, 96 and 120 hours post-dose. Blood samples were collected from the mice and placed into prechilled heparinized tubes at each interval and were separated by centrifugation to recover the plasma. The samples were analyzed for fusion protein concentration, performed by both anti-XTEN/anti-XTEN sandwich ELISA (AS1405) and anti-GLP2/anti-XTEN sandwich ELISA (AS1717), and the results were analyzed using WinNonLin to obtain the PK parameters.

[4] = tested on: indomethacin-induced intestinal inflammation in Wistar rats; type: in vivo, rat
Description: Study 2: Intestinal inflammation was induced in eighty male Wistar rats (Harlan Sprague Dawley) using indomethacin administered on Days 0 and 1 of the experiment. The rats were divided into eight treatment groups for treatment according to Table 20. All treatments were administered per the schedule starting on Day-3 of the experiment. Body weights were determined daily. On Day 2 (24 hours post-2nd indomethacin dose), the animals were prepped for sacrifice and analysis. Thirty minutes prior to sacrifice, the rats were injected intravenously with 1 ml 1% Evans Blue dye, in order to visualize ulcers and extent of inflammation by histopathology analysis. The rats were anesthetized and blood samples were removed to determine the concentration of GLP-2-2G-XTEN using the anti-XTEN/anti-GLP2 ELISA method. The rats were euthanized then necropsied and scored by gross examination of the intestines for the presence of adhesions; i.e., none=0, mild=1, moderate=2, or severe=3. The small intestines were removed and the length of each was recorded. In each small intestine, a longitudinal incision was made and the interior was examined. The degree and length of the ulcerated area was recorded as a score; i.e., none=0, few=1, multiple=2, or continuous=3. The fecal material was washed away with saline and blotted to remove excess fluid and each small intestine was weighed then processed for histopathology examination to quantitate the degree of inflammation; i.e., 0.0%=0, 1-33%=1, 34-66%=2, 67-100%=3.

[5] = tested on: DSS-induced intestinal colitis in C57Bl/6 mice; test: Murine acute DSS-induced colitis model; type: in vivo, mouse
Description: To determine the efficacy of GLP2-XTEN, the GLP2-2G-XTEN-AE864 fusion protein was evaluated in a mouse model of intestinal inflammatory colitis. […] A naïve, non-treated control group (group 1) was given normal drinking water for the duration of the experiment. […] Tissues were fixed in formalin and then transferred to ethanol for staining and histopathology. The anatomical data was analyzed with an ANOVA model with a Tukey/Kramer post-hoc test for pairwise comparisons, with significance at p=0.05.

B1: GLP2-2G-XTEN_AE864: fusion protein of GLP-2 with glycine at position 2 linked at the C-terminus to XTEN AE864; sequence of FIG. 28 (SEQ ID NO: 798) (protein)
chain: HGDGSFSDEMNTILDNLAARDFINWLIQTKITDGGSPAGSPTSTEEGTSESATPESGPGTSTEPSEGSAPGSPAGSPTSTEEGTSTEPSEGSAPGTSTEPSEGSAPGTSESATPESGPGSEPATSGSETPGSEPATSGSETPGSPAGSPTSTEEGTSESATPESGPGTSTEPSEGSAPGTSTEPSEGSAPGSPAGSPTSTEEGTSTEPSEGSAPGTSTEPSEGSAPGTSESATPESGPGTSTEPSEGSAPGTSESATPESGPGSEPATSGSETPGTSTEPSEGSAPGTSTEPSEGSAPGTSESATPESGPGTSESATPESGPGSPAGSPTSTEEGTSESATPESGPGSEPATSGSETPGTSESATPESGPGTSTEPSEGSAPGTSTEPSEGSAPGTSTEPSEGSAPGTSTEPSEGSAPGTSTEPSEGSAPGTSTEPSEGSAPGSPAGSPTSTEEGTSTEPSEGSAPGTSESATPESGPGSEPATSGSETPGTSESATPESGPGSEPATSGSETPGTSESATPESGPGTSTEPSEGSAPGTSESATPESGPGSPAGSPTSTEEGSPAGSPTSTEEGSPAGSPTSTEEGTSESATPESGPGTSTEPSEGSAPGTSESATPESGPGSEPATSGSETPGTSESATPESGPGSEPATSGSETPGTSESATPESGPGTSTEPSEGSAPGSPAGSPTSTEEGTSESATPESGPGSEPATSGSETPGTSESATPESGPGSPAGSPTSTEEGSPAGSPTSTEEGTSTEPSEGSAPGTSESATPESGPGTSESATPESGPGTSESATPESGPGSEPATSGSETPGSEPATSGSETPGSPAGSPTSTEEGTSTEPSEGSAPGTSTEPSEGSAPGSEPATSGSETPGTSESATPESGPGTSTEPSEGSAPG
With B1 the Cl [1] was 0.80 mL/h, the “T ½” value [1] was 43.6 h and the Vd [1] was 0.21 L/kg. The terminal half-life ([1]; sc) was 37.5 to 49.7 h, the AUCInf ([1]; sc, 2 mg/kg) was 530 µg·h/mL and the Vz ([1]; sc, 2 mg/kg) was 43.4 mL. The apparent molecular weight ([2]; SEC, BioSep-SEC-s4000, 50 mM Phosphate pH 6.5, 300 mM NaCl, lot AP690) was 1002 kDa, the “apparent molecular weight factor” value ([2]; apparent vs 83.1 kDa actual weight) was 12.5 and the Cl [3] was 0.07 mL/h. For the same molecule, the “T ½” value [3] was 33.9 h, the Vd [3] was 0.14 L/kg and the “protection of the intestines from inflammatory effects of indomethacin” value ([4]; conclusion of the experiment) was “provided significant protection to the intestines from the inflammatory effects of indomethacin”. For the same molecule, the “histopathology: protective effects” value ([4]; daily bid peptide, once-daily fusion protein) was “most pronounced in the ileum, but were also seen in the jejunum”, the efficacy by regimen ([4]; daily dosing at 2 mg/kg) was “greatest efficacy” and the adhesions score ([4]; once-daily fusion protein, daily bid peptide, FIG. 22B) was “nearly complete protection from adhesions”. The small intestine length ([4]; once-daily fusion protein, daily bid peptide, vs indomethacin-treated vehicle control) was “reached statistically significant difference”, the total disease score ([4]; peptide delivered bid, fusion protein delivered qd, vs indomethacin-treated vehicle control) was “significantly improved scores” and the “fusion protein in blood samples (anti-XTEN/anti-GLP2 ELISA)” value ([4]; rat, in vivo) was “detectable at Day 2 in all animals of Group 4 and Group 8, and three rats in Group 7”. For the same molecule, the total disease score ([4]; single doses at 6 or 2 mg/kg, vs indomethacin-treated vehicle control) was “significantly improved scores”, the efficacy by regimen ([4]; single doses of 6 mg/kg or 2 mg/kg) was “significant efficacy in some parameters” and the adhesions score ([4]; single high-dose 6 mg/kg) was “reached statistically significant difference”. The “histopathology of small intestine” value ([5]; DSS-treated mice, 6 mg/kg qd) was “normal mucosal architecture with elongated villi densely populated with columnar epithelial and goblet cells”, the “loss of body weight” value ([5]; DSS-treated mice, SC days 1-10, peptide BID, fusion protein QD, any dose) was “neither the mice treated with GLP2-2G peptide nor any of the groups of mice treated with any dose of GLP2-2G-XTEN mice showed a reduced loss of body weight” and the “protection of the intestines from inflammatory effects of DSS” value ([5]; conclusion of the experiment) was “protected the intestines from the inflammatory effects of DSS, with maintenance of normal villi and mucosal architecture”. For the same molecule, the small intestine weight ([5]; high dose group (6 mg/kg), compared to control groups 1 and 2, day 10) was “increase in small intestine weight” and the small intestine weight ([5]; medium dose group (2 mg/kg), compared to group 1, day 10) was “increase in small intestine weight”.
